# Tests used:
# laminin-211 [1] = target: T1, laminin-211 (human, UniProt P24043 23-3122; P07942 22-1786; P11047 34-1609); assay: ELISA, GF coated, laminin 10 nM
# T1 construct: Full-length recombinant human laminin isoform (BioLamina); chains read from the isoform name
# laminin-421 [2] = target: T2, laminin-421 (human, UniProt Q16363 25-1823; P55268 33-1798; P11047 34-1609); assay: ELISA, GF coated, laminin 10 nM
# T2 construct: Full-length recombinant human laminin isoform (BioLamina); chains read from the isoform name
# laminin-111 [3] = target: T3, laminin-111 (human, UniProt P25391 18-3075; P07942 22-1786; P11047 34-1609); assay: ELISA, GF coated, laminin 10 nM
# T3 construct: Full-length recombinant human laminin isoform (BioLamina); Chain composition is read from the isoform name
# laminin-411 [4] = target: T4, laminin-411 (human, UniProt Q16363 25-1823; P07942 22-1786; P11047 34-1609); assay: ELISA, GF coated, laminin 10 nM
# T4 construct: Full-length recombinant human laminin isoform (BioLamina); chains read from the isoform name
# T4 sequence (Q16363 25-1823 limits assumed, chain 1 of 3): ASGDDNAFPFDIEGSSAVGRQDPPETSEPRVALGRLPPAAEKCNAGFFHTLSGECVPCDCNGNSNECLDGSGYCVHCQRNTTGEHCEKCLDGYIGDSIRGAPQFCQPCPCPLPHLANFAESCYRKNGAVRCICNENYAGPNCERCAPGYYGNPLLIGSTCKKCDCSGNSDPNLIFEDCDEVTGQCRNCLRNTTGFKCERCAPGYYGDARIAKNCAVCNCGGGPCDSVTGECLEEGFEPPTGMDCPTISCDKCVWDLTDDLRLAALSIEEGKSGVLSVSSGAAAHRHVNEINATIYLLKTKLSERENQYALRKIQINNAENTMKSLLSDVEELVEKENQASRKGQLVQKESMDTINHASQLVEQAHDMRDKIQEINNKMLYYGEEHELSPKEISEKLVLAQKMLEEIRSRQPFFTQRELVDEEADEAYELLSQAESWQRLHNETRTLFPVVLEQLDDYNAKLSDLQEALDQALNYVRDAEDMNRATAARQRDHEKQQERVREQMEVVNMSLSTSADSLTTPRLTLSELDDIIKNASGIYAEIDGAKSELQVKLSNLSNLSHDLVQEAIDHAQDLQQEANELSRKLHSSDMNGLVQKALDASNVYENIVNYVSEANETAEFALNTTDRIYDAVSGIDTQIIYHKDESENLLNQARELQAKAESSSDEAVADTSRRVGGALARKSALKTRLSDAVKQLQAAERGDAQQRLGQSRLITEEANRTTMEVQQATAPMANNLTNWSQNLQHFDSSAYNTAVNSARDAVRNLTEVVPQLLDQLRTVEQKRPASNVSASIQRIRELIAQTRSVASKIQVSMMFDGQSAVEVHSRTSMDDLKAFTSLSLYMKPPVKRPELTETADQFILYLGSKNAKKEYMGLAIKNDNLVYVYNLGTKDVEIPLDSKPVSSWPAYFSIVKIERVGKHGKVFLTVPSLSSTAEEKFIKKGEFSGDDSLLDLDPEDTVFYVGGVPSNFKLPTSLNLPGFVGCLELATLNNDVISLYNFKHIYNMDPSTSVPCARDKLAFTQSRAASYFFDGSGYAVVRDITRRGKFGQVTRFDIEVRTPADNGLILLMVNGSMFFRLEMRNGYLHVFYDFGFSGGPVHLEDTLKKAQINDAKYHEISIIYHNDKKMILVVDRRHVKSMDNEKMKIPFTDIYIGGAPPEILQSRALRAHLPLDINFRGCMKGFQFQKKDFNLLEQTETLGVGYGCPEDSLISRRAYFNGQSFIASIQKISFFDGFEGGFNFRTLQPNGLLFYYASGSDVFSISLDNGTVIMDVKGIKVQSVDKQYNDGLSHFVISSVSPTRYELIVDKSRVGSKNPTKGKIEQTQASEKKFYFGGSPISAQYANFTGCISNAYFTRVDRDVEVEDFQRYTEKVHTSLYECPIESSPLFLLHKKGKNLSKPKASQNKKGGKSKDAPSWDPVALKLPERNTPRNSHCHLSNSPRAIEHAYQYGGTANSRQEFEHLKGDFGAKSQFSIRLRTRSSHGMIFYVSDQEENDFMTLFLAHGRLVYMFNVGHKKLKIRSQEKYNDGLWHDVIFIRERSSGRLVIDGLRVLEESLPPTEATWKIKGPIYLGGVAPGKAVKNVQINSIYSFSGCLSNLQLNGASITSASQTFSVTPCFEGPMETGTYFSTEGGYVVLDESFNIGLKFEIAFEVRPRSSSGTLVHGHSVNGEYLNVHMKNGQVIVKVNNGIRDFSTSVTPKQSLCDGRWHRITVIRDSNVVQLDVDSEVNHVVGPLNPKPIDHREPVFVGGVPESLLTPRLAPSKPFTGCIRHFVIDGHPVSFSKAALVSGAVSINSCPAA
# T4 sequence (P07942 22-1786 limits assumed, chain 2 of 3): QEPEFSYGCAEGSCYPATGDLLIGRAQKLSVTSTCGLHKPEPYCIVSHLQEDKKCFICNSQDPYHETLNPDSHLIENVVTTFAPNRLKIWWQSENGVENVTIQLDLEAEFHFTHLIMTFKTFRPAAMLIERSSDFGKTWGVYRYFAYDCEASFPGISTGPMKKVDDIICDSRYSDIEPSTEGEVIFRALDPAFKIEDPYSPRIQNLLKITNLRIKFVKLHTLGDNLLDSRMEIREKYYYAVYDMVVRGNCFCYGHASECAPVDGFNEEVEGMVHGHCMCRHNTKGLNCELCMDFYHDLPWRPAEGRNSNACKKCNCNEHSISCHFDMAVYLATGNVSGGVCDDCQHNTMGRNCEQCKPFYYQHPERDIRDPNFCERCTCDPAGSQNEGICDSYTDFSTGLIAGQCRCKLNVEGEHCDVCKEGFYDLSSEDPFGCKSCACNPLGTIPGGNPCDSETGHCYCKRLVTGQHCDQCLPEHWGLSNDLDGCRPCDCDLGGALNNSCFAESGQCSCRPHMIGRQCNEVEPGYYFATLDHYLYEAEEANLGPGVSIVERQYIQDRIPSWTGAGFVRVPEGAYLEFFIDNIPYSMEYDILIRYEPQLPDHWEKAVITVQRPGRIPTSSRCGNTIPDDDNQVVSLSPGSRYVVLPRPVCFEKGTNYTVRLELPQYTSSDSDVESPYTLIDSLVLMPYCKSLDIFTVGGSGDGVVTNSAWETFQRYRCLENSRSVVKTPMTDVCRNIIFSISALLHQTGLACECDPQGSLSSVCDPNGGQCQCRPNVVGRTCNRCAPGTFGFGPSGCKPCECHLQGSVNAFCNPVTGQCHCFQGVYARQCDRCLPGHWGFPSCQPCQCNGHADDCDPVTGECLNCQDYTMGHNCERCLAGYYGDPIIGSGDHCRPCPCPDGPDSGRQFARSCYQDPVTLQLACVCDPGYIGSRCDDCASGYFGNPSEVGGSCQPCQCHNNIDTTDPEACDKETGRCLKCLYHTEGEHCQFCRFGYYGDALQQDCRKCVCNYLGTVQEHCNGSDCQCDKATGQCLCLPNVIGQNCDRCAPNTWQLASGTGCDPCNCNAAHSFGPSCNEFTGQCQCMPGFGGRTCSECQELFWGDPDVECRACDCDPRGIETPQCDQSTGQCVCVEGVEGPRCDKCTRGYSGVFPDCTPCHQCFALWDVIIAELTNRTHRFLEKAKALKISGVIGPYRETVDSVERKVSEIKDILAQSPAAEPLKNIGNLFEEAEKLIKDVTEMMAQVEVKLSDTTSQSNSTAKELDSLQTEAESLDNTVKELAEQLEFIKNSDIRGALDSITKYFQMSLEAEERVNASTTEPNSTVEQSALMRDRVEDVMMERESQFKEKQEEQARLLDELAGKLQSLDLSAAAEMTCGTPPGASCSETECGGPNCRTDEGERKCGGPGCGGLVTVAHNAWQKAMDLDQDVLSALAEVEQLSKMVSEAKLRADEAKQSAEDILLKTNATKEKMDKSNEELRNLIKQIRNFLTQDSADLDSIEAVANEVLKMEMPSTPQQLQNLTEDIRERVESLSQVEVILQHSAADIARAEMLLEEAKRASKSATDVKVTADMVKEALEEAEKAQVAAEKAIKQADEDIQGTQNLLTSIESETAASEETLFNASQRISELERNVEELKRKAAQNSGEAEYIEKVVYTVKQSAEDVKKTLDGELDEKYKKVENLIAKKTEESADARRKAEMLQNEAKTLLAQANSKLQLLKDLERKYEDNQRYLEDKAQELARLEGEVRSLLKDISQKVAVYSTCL
# T4 sequence (P11047 34-1609 limits assumed, chain 3 of 3): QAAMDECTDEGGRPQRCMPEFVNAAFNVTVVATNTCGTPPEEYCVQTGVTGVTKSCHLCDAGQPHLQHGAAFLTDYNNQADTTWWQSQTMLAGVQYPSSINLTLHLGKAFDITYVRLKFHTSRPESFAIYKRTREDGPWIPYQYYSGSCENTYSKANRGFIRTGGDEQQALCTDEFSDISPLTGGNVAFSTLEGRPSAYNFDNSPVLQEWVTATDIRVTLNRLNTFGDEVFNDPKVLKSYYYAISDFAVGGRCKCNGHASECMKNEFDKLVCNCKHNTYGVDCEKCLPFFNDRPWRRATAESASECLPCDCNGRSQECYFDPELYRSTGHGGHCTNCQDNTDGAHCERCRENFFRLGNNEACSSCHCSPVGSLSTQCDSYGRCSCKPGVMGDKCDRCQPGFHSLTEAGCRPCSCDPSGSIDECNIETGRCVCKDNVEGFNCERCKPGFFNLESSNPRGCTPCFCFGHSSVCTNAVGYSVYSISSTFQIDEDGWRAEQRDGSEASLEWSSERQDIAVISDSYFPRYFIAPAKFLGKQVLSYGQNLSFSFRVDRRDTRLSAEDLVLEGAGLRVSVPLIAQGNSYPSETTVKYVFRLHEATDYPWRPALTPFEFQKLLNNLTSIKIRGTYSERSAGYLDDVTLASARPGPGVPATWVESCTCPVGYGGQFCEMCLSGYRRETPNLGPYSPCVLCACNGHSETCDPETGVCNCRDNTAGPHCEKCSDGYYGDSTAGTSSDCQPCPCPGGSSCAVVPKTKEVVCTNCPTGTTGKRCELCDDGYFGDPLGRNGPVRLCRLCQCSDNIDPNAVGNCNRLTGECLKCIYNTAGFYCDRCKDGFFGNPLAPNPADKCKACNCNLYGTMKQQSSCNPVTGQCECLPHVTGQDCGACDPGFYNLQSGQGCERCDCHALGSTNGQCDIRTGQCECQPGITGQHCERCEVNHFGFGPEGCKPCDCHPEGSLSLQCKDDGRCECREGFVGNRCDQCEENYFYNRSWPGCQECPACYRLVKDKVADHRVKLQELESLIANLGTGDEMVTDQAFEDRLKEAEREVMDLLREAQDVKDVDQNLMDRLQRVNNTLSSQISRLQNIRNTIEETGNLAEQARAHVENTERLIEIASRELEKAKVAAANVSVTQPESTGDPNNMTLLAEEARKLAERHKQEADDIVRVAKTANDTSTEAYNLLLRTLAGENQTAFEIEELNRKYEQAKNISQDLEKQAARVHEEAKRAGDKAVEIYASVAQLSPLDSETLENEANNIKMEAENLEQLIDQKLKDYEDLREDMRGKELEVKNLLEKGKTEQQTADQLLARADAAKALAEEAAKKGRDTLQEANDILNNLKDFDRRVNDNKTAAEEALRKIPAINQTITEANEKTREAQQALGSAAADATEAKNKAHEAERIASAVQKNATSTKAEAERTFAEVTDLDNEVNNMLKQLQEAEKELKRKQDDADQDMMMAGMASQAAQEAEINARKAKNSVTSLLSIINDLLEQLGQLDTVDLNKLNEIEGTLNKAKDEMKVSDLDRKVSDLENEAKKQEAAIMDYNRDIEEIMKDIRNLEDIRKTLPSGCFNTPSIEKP
# [5] = target: T5, recombinant laminin α3 2928-3150 protein (linker domain and LG4 domain) (human, UniProt Q16787 2928-3150); assay: SPR; α3 2928-3150 recombinant protein immobilised (~1000 RU), PDGF-BB flowed at 0.325-41.6 nM; Langmuir fit [panel D]
# T5 construct: range 2928-3150; Made in HEK-293F cells; also called laminin alpha 3 LG domain recombinant protein
# T5 sequence: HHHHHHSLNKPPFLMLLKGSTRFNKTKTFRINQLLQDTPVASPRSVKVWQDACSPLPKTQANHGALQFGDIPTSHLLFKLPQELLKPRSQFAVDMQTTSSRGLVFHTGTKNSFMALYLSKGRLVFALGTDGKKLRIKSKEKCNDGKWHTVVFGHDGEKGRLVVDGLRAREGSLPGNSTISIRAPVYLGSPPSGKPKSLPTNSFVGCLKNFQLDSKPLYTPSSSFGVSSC
# Description: (§1) Statistical analyses were done using the Mann-Whitney U test by comparing the signals obtained from the laminin domain- and the BSA-coated wells. *p<0.05, **p<0.01. […] A SPR chip was functionalized with the laminin α3₂₉₂₈₋₃₁₅₀ recombinant protein (˜1000 RU), and each GF was flowed over the chip at indicated concentrations. Curves represent the specific responses (in RU) to laminin. Experimental curves were fitted with Langmuir binding kinetics.
# (§2) Because the GFs that bound to laminins have also been previously reported to bind to other ECM glycoproteins through HBDs, it was hypothesized that HBDs of laminins might be responsible for the interactions between GFs and laminin. To address this hypothesis, ELISA assays were repeated for VEGF-A165, PlGF-2 or FGF-2 in the presence of heparin added in excess (10 μM). […] To further confirm this, the inventors tested direct GF binding to the LG domains from human laminin α3, α4 and α5, within which HBDs of laminin were localized.
# (§3) SPR analysis was performed as described previously². In brief, measurements were made with a Biacore 3000 SPR system (GE Healthcare). […] VEGF-A165, PDGF-BB, or PlGF-2 was flowed at increasing concentrations in the running buffer at 20 μL/min. The sensor chip was regenerated with 50 mM NaOH for every cycle.
# [6] = target: T5, recombinant laminin α3 2928-3150 …; assay: SPR, α3 2928-3150 immobilised, GF flowed, Langmuir fit
# Experimental: as §1, with “Affinity of GFs against recombinant laminin LG domains. ELISA plates were coated with 1 μg/mL (A) α3₂₉₂₈₋₃₁₅₀, (B) α4₈₂₆₋₁₈₁₆, or (C) α5₃₀₂₆₋₃₄₈₂ and further incubated with 1 μg/mL of VEGF-A165, VEGF-A121, PlGF-2, PlGF-1, PDGF-BB, or FGF-2 solution. Bound GFs were detected using a specific antibody for each GF (n=4, mean±SEM). Statistical” for “Statistical”
# as §2
# SPR analysis was performed as described previously². […]
# human plasma-derived vWF [7] = target: T6, human plasma-derived vWF (human, UniProt P04275 764-2813); assay: SPR, vWF immobilised, GF flowed, heterogeneous ligand-parallel reactions fit
# T6 construct: mature; also called plasma-derived purified vWF; von Willebrand factor
# Experimental: (§4) A450 nm represents absorbance at 450 nm. Signals from VEGF-A121 served as a baseline, and bovine serum albumin (BSA) served as a negative control (n=4, mean±SD). […] Experimental curves were fitted with (C) 1:1 Langmuir fit model and (D) heterogeneous ligand-parallel reactions binding.
# (§5) SPR assays were performed as described previously2. In brief, measurements were made with a Biacore X100 SPR system or Biacore 3000 SPR system (GE Healthcare). […] Recombinant human VEGF-A165, VEGF-A121, or PDGF-BB was flowed at increasing concentrations in the running buffer at 30 μL/min. The sensor chip was regenerated with glycine at pH 2 for every cycle.
# laminin-521 [8] = target: T7, laminin-521 (human, UniProt O15230 36-3695; P55268 33-1798; P11047 34-1609); assay: SPR, laminin-521 immobilised, GF flowed, Langmuir fit
# T7 construct: Full-length recombinant human laminin isoform (BioLamina); chains read from the isoform name
# Experimental: (§6) A450 nm represents absorbance at 450 nm. BSA-coated wells served as negative controls (n=4, mean±SEM). Signals greater than 0.1 (grey box) are considered to be significant. […] Experimental curves were fitted with Langmuir binding kinetics.
# (§7) The obtained binding curves were fitted with Langmuir binding kinetics to calculate specific dissociation constants (KD) (FIG. 1B).
# as §3, with “cycle. Specific bindings of GFs to laminin were calculated by comparison to a non-functionalized channel used as a reference. Experimental results were fitted with Langmuir binding kinetics using BIAevaluation software (GE Healthcare).” for “cycle.”
# human plasma-derived vWF [9] = target: T6, human plasma-derived vWF; assay: SPR; plasma-derived vWF immobilised (~2000 RU), PDGF-BB flowed at 25-200 nM; heterogeneous ligand-parallel reactions fit, site 1 [panel D]
# Experimental: as §4, §5
# human plasma-derived vWF [10] = target: T6, human plasma-derived vWF; assay: SPR; plasma-derived vWF immobilised (~2000 RU), PDGF-BB flowed at 25-200 nM; heterogeneous ligand-parallel reactions fit, site 2 [panel D]
# Experimental: as §4, §5
# laminin-521 [11] = target: T7, laminin-521; assay: SPR; laminin-521 immobilised on the chip (~2000 RU), PDGF-BB flowed at 25-200 nM; Langmuir fit
# Experimental: as §6, §7
# as §3, with “cycle. Specific bindings of GFs to laminin were calculated by comparison to a non-functionalized channel used as a reference. Experimental results were fitted with Langmuir binding kinetics using BIAevaluation software (GE Healthcare).” for “cycle.”
# laminin-211 [12] = target: T1, laminin-211; assay: ELISA; plate coated with 10 µg/mL laminin, 1 µg/mL PlGF-2 in solution without or with 10 µM heparin, bound GF detected with antibody [panel B]
# Experimental: (§8) FIGS. 2A-C. […] ELISA plates were coated with 10 μg/mL laminin and further incubated with a 1 μg/mL (A) VEGF-A165, (B) PlGF-2, or (C) FGF-2 solution in the absence or presence of excess (10 μM) heparin. Bound GFs were detected using a specific antibody for each GF (n=4, mean±SEM). Statistical analyses were done using the Mann-Whitney U test by comparing the signals with and without heparin. *p<0.05, **p<0.01.
# as §2
# laminin-421 [13] = target: T2, laminin-421; assay: as above
# Experimental: as §8, §2
# laminin-111 [14] = target: T3, laminin-111; assay: as above
# Experimental: as §8, §2
# laminin-411 [15] = target: T4, laminin-411; assay: as above
# Experimental: as §8, §2
# human plasma-derived vWF [16] = target: T6, human plasma-derived vWF; assay: ELISA, GF coated 50 nM, vWF 1 µg/mL
# [17] = target: T8, recombinant human vWF A1 domain (human, UniProt P04275 1261-1468, limits assumed); assay: ELISA, A1 domain coated, GF 1 µg/mL
# T8 construct: domain: A1; also called vWF A1 recombinant protein; recombinant A1 domain
# Experimental: ELISA tests were performed as described above. […] After blocking with 2% BSA solution containing PBS-T, 1 μg/mL of the recombinant human proteins VEGF-A121, VEGF-A165, PlGF-1, PlGF-2, PDGF-BB, FGF-2, CXCL-12α and CXCL-12γ were added. 1 μg/mL of BSA served as non-binding protein control. Bound GF or chemokine was detected with biotinylated antibodies for human VEGF-A, PlGF, PDGF-BB, FGF-2, or CXCL-12 (R & D Systems). The antibodies were detected by streptavidin-HRP (R & D Systems). Color development and the absorbance measurement were done as described above.
# [18] = target: T5, recombinant laminin α3 2928-3150 …; assay: ELISA, LG domain protein coated, GF 1 µg/mL
# Experimental: as §1, with “Affinity of GFs against recombinant laminin LG domains. ELISA plates were coated with 1 μg/mL (A) α3₂₉₂₈₋₃₁₅₀, (B) α4₈₂₆₋₁₈₁₆, or (C) α5₃₀₂₆₋₃₄₈₂ and further incubated with 1 μg/mL of VEGF-A165, VEGF-A121, PlGF-2, PlGF-1, PDGF-BB, or FGF-2 solution. Bound GFs were detected using a specific antibody for each GF (n=4, mean±SEM). Statistical” for “Statistical”
# ELISA tests were performed as described above. […] 1 μg/mL of BSA served as non-binding protein control. After blocking with 2% BSA PBS-0.05% Tween 20 (PBS-T) solution, 1 μg/mL of the recombinant human proteins (VEGF-A121, VEGF-A165, PlGF-1, PlGF-2, PDGF-BB or FGF-2) or 10 μg/mL of biotinylated heparin (Sigma-Aldrich) were added. Bound GF was detected with biotinylated antibodies for human VEGF, PlGF, PDGF-BB, or FGF-2 (R&D Systems). The antibodies were detected by streptavidin-HRP (R&D Systems).
# laminin-521 [19] = target: T7, laminin-521; assay: SPR; laminin-521 immobilised on the chip (~2000 RU), PlGF-2 flowed at 20-75 nM; Langmuir fit
# Experimental: as §6, §7
# as §3, with “cycle. Specific bindings of GFs to laminin were calculated by comparison to a non-functionalized channel used as a reference. Experimental results were fitted with Langmuir binding kinetics using BIAevaluation software (GE Healthcare).” for “cycle.”
binder,measurement,setting,value
"platelet-derived growth factor (PDGF)-BB (ligand, human, UniProt P01127 82-190, looked up, mature; Purchased in mature form) SLGSLTIAEPAMIAECKTRTEVFEISRRLIDRTNANFLVWPPCVEVQRCSGCCNNRNVQCRPTQVQLRPVQVRKIEIVRKKPIFKKATVTLEDHLACKCETVAAARPVT",binding result,laminin-211 [1],binds
same,binding result,laminin-421 [2],binds
same,binding result,laminin-111 [3],binds
same,binding result,laminin-411 [4],binds
same,Kd,[5],12.1 nM
same,koff,[5],0.0136 s⁻¹
same,kon,[5],1.12e+06 M⁻¹ s⁻¹
same,Kd,[6],10.2 nM
same,Kd,human plasma-derived vWF [7],24 nM
same,Kd,laminin-521 [8],24.2 nM
same,Kd,human plasma-derived vWF [9],154 nM
same,koff,human plasma-derived vWF [9],0.0664 s⁻¹
same,kon,human plasma-derived vWF [9],430000 M⁻¹ s⁻¹
same,Kd,human plasma-derived vWF [10],23.8 nM
same,koff,human plasma-derived vWF [10],0.00508 s⁻¹
same,kon,human plasma-derived vWF [10],213000 M⁻¹ s⁻¹
same,koff,laminin-521 [11],0.00497 s⁻¹
same,kon,laminin-521 [11],206000 M⁻¹ s⁻¹
"placental growth factor (PlGF)-2 (ligand, human, UniProt P49763-3 19-170, looked up, mature; Purchased in mature form) LPAVPPQQWALSAGNGSSEVEVVPFQEVWGRSYCRALERLVDVVSEYPSEVEHMFSPSCVSLLRCTGCCGDENLHCVPVETANVTMQLLKIRSGDRPSYVELTFSQHVRCECRPLREKMKPERRRPKGRGKRRREKQRPTDCHLCGDAVPRR",binding result,laminin-211 [12],binds
same,binding result,laminin-421 [13],binds
same,binding result,laminin-111 [14],binds
same,binding result,laminin-411 [15],binds
same,binding result,human plasma-derived vWF [16],binds
same,binding result,[17],binds
same,Kd,laminin-521 [8],12.9 nM
same,binding result,[18],binds
same,koff,laminin-521 [19],0.0246 s⁻¹
same,kon,laminin-521 [19],1.91e+06 M⁻¹ s⁻¹

# From patent publication US20240092867A1 (UNIVERSITY OF CHICAGO, published 2024)
